Laboratory results from PMC1853097, “The high-resolution NMR structure of the R21A Spc-SH3:P41 complex: Understanding the determinants of binding affinity by comparison with Abl-SH3” (BMC Structural Biology, 2007).
Read-outs that look alike come from different tables or passages of the source.

Legend:
p41 decapeptide [1] = experiment: ITC (Microcal MCS); settings: 25 °C, added salt not given, 20 mM buffer only, Three buffers of different ionisation heat at each pH, each 20 mM. At pH 7.0: phosphate, hepes and imidazole (named in F); for Kb: scale: 10^3 M^-1
[2] = target: R21A mutant of the α-spectrin SH3 domain (R21A Spc-SH3); experiment: ITC titration of R21A Spc-SH3 with p41; assay type: binding, chicken; settings: 25°C, global fit of three isotherms, error = 95% confidence interval
Experimental: (§1) The binding between the p41 decapeptide and the R21A Spc-SH3 mutant domain was studied by a combination of isothermal titration calorimetry (ITC) and differential scanning calorimetry (DSC) experiments. ITC experiments were performed at 25°C at both pH 3.0 and 7.0, using several buffers at a concentration of 20 mM. Similar ITC experiments were made with the WT Spc-SH3 domain for comparison. […] The contribution of protonation/deprotonation processes to the binding enthalpy change, was estimated using three buffers differing in their ionization heats (Figure 1B).
(§2) ITC experiments were performed at 25°C in a high-precision MCS titration calorimeter (Microcal Inc., Northampton, MA). Prior to the experiments the protein was extensively dialyzed at 4°C against the appropriate buffer. The solutions of p41 peptide were prepared by dissolving the lyophilized material directly into the buffer and subsequently adjusting the pH of the solution. All buffers and solutions were filtered and degassed and equilibrated to the working temperature prior to each experiment. […] The binding constant, Kb, and the enthalpy change of binding, ΔHb, were determined by global fitting of the three binding isotherms measured in different buffers, using a model of binding to a single set of identical sites, according to the equation: […]

[3] = test system: WT α-spectrin SH3 domain (WT Spc-SH3); settings: Spc-SH3 relative to Abl-SH3; cited from earlier work
Excerpt: Background SH3 domains are small protein modules of 60–85 amino acids that bind to short proline-rich sequences with moderate-to-low affinity and specificity. Interactions with SH3 domains play a crucial role in regulation of many cellular processes (some are related to cancer and AIDS) and have thus been interesting targets in drug design. The decapeptide APSYSPPPPP (p41) binds with relatively high affinity to the SH3 domain of the Abl tyrosine kinase (Abl-SH3), while it has a 100 times lower affinity for the α-spectrin SH3 domain (Spc-SH3). Results Here we present the high-resolution structu ... || Here we present the solution structure of the R21A mutant of the α-spectrin SH3 domain (Spc-SH3), both in its free form and bound to the decapeptide APSYSPPPPP (p41). We also show a complete thermodynamic characterization of the SH3-p41 interaction by calorimetric methods, together with an analysis of its effect upon the conformational dynamics of the SH3 domain using amide hydrogen-deuterium exchange (HX). The p41 peptide was initially designed as a high-affinity and high-specificity ligand for the Abl-SH3 domain [6] and the crystal structure of the complex was subsequently determined [[12] ...

[4] = target: SH3 domain of the Abl tyrosine kinase (Abl-SH3); settings: cited from earlier work; for Kb (binding constant): ITC, 25°C
Excerpt: The affinities are much lower than that of the Abl-SH3 domain for p41 under similar conditions, which is in the range of 2 × 10^5 – 4 × 10^5 M^-1 [16]. In all cases the binding is driven by a large and favourable enthalpy change, partially compensated by an unfavourable entropy change. A similar thermodynamic signature is usually observed for the binding of proline-rich peptides to other SH3 domains. The very small variation of the binding enthalpies with the ionization enthalpy of the buffers ... || We have performed a global analysis of the ΔCpapp MathType@MTEF@5@5@+=feaafiart1ev1aaatCvAUfKttLearuWrP9MDH5MBPbIqV92AaeXatLxBI9gBaebbnrfifHhDYfgasaacH8akY=wiFfYdH8Gipec8Eeeu0xXdbba9frFj0=OqFfea0dXdd9vqai=hGuQ8kuc9pgc9s8qqaq=dirpe0xb9q8qiLsFr0=vr0=vr0dc8meaabaqaciaacaGaaeqabaqabeGadaaakeaacqqHuoarcqWGdbWqdaqhaaWcbaGaemiCaahabaGaemyyaeMaemiCaaNaemiCaahaaaaa@34D4@ curves using a simple model in which the protein/ligand binding and protein unfolding equilibria are coupled (Figure 2). This analysis is, with minor modifications, similar to that used previously for the analysis of the interaction be ...

[5] = target: WT α-spectrin SH3 domain (WT Spc-SH3); experiment: ITC titration of WT Spc-SH3 with p41; assay type: binding, chicken; parameters: unit not given here; settings: 25°C, global fit of three isotherms, error = 95% confidence interval
Experimental: as §1, §2

p41 decapeptide [6] = experiment: ITC (quoted from reference 16, Palencia et al. 2004); settings: 25 °C (Table 1 title), not stated ('under similar conditions'), cited from earlier work; for Kb: scale: 10^3 M^-1

## alpha-spectrin SH3 domain (Spc-SH3), R21A mutant R21A
p41 decapeptide [1]; pH 3.0
  p (protons per mole of ligand bound): -0.29
  ΔGb: -24.3 kJ/mol
  Kb: 18.2
p41 decapeptide [1]; pH 7.0
  p (protons per mole of ligand bound): 0.06
  ΔGb: -24.3 kJ/mol
  Kb: 18.1

## APSYSPPPPP [p41, synthetic decapeptide …, both acetylated and methylated in its termini]
[2]; pH 3.0, 20 mM buffers
  Kb (binding constant): 18.2 ± 2.0 ×10^-3 M^-1
[2]; pH 7.0, 20 mM buffers (phosphate, hepes, imidazole), single set of identical sites
  Kb (binding constant): 18.1 ± 1.9 ×10^-3 M^-1
[3]
  times lower affinity for Spc-SH3 than for Abl-SH3: 100 times
[4]; pH 3.0
  Kb (binding constant): 210000 M⁻¹
[4]; pH 7.0
  Kb (binding constant): 323000 M⁻¹
[4]; under similar conditions
  affinity of the Abl-SH3 domain for p41 (binding constant): 200000 to 400000 M⁻¹
[5]; pH 3.0, 20 mM buffers
  Kb (binding constant): 5.8 ± 0.8 ×10^-3
[5]; pH 7.0, 20 mM buffers
  Kb (binding constant): 5.2 ± 1.2 ×10^-3

## alpha-spectrin SH3 domain (Spc-SH3), wild type
p41 decapeptide [1]; pH 3.0
  p (protons per mole of ligand bound): -0.07
  ΔGb: -21.5 kJ/mol
  Kb: 5.8
p41 decapeptide [1]; pH 7.0
  p (protons per mole of ligand bound): 0.01
  ΔGb: -21.2 kJ/mol
  Kb: 5.2

## Abl tyrosine kinase SH3 domain (Abl-SH3)
p41 decapeptide [6]; pH 3.0
  ΔGb: -30.4 kJ/mol
  Kb: 210
p41 decapeptide [6]; pH 7.0
  p (protons per mole of ligand bound): 0.1
  ΔGb: -31.4 kJ/mol
  Kb: 323
